Experimental data: patent publication US20220273710A1 (AUTOLUS, published 2022)

T1: Recombinant purified CD79b (R&D systems) (human, UniProt P40259 29-159)
T1 construct: Bought protein
T1 sequence: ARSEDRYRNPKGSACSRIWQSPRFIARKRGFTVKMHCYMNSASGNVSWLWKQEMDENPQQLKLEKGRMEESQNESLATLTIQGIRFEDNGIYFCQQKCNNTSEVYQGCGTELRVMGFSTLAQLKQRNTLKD


Molecular target: T1, Recombinant purified CD79b (R&D systems)
Test: SPR, Biacore 8K, antibody immobilised on CM5 chip, CD79b as analyte, 25° C, 1:1 Langmuir fit
Excerpt: Recombinant anti-CD79b antibodies Polatuzumab and newly generated antibodies 2E8, 3H2, and 7G4 were immobilised on individual flow cells on a Series S CM5 sensor chip (GE Healthcare) to a density of 150-280 RU using a Biacore 8K instrument. HBS-P+buffer was used as running buffer under all experimental conditions. Recombinant purified CD79b (R&D systems) at known concentrations was used as the ‘analyte’ and injected over the respective flow cells with 150s contact time and 300s dissociation, at 30 μl/minute of flow rate and a constant temperature of 25° C. In each experiment, flow cell 1 was unmodified and used for reference subtraction. A ‘0 concentration’ sensorgram of buffer alone was used as a double reference subtraction to factor for drift. Data were fit to a 1:1 Langmuir binding model.

Row | Binder | Kd | koff | kon
1 | 3H2 (antibody, mouse IgG2a, V domains shown, also called 3H2 antibody; clone 3H2) VH: AVQLVESGGGLVQPKESLKLSCAASGFTFSHTAMYWVRQAPGKGLECVARIRIQPKNYATYYADSVKGRFTISRDDSKSMVYLQMDNLKTEDTAMYYCTAAGFGFDYWGQGVMVTVSS VL: DVVLTQTPVSLSVTLGDQASISCRSSQSLEYSDGNTYLEWYLQKPGQSPQLLIYEVSKRFSGVPDRFIGSGSGTDFTLKISRVEPEDLGIYYCLQATHDPFTFGSGTKLEIK | 2.62 nM | 0.00431 s⁻¹ | 1.64e+06 M⁻¹ s⁻¹
2 | 2E8 (antibody, mouse IgG2a, V domains shown, also called 2E8 antibody; clone 2E8) VH: AVQLVESGGGLVQPKESLKISCAASGFTFSNAAMYWVRQAPGKGLEWVARIRTKPNNYATNYADSVKGRFTISRDDSKSMVYLQMDNLKTEDTAMYYCTYYDGSSYAMDAWGQGTSVTVSS VL: DVVLTQTPVSLSVTLGDQASISCRSSQSLEYSDGYTYLDWYLQKPGQSPQLLIYEVSNRFSGVPDRFIGSGSGTDFTLKISRVEPEDLGVYYCFQATHDPYTFGAGTKLEIK | 7.11 nM | 0.0805 s⁻¹ | 1.13e+07 M⁻¹ s⁻¹
3 | 7G4 (antibody, mouse IgG2a, V domains shown, also called 7G4 antibody; clone 7G4) VH: AVQLVESGGGLVQPKESLKISCAASGFTFSNAAMYWVRQAPGKGLEWVARIRTKPNNYATNYADSVKGRFTISRDDSKSMVYLQMDNLKTEDTAMYYCTYYDGSSYAMDAWGQGTSVTVSS VL: DVVLTQTPVSLSVTLGDQASISCRSSQSLEYSDGYTYLDWYLQKPGQSPQLLIYEISNRFSGVPDRFIGSGSGTDFTLKISRVEPEDLGVYYCFQATHDPYTFGAGTKLEIK | 3.1 nM | – | –
4 | Polatuzumab (antibody, V domains shown, polatuzumab'; also called humanised anti-CD79b 2F2; anti-CD79b antibody polatuzumab) VH: EVQLVESGGGLVQPGGSLRLSCAASGYTFSSYWIEWVRQAPGKGLEWIGEILPGGGDTNYNEIFKGRATFSADTSKNTAYLQMNSLRAEDTAVYYCTRRVPIRLDYWGQGTLVTVSS VL: DIQLTQSPSSLSASVGDRVTITCKASQSVDYEGDSFLNWYQQKPGKAPKLLIYAASNLESGVPSRFSGSGSGTDFTLTISSLQPEDFATYYCQQSNEDPLTFGQGTKVEIKR | 6.88 nM | 0.00806 s⁻¹ | 1.17e+06 M⁻¹ s⁻¹
